From the supplement of paper PMC7877785
± gives the uncertainty stated by the source.

Assay: self-splicing fitness, log relative to wild type (ln ratio); higher = more splicing; Tetrahymena group I intron in knt gene, E. coli kanamycin selection, DiMSum; sequences stand for … in CUCUCU…GGAGGGAAAAGUUAUCAGGCAUGCACCUGGUAGCUAGUCUUUAAACCAAUAGAUUGCAUCGGUUUAAAAGGCAAGACCGUCAAAUUGCGGGAAAGGGGUCAACAGCCGUUCAGUACCAAGUCUCAGGGGAAACUUUGAGAUGGCCUUGCAAAGGGUAUGGUAAUAAGCUGACGGACAUGGUCCUAACCACGCAGCCAAGUCCUAAGUCAACAGAUCUUCUGUUGAUAUGGAUGCAGUUCACAGACUAAAUGUCGGUCGGGGAAGAUGUAUUCUUCUCAUAAGAUAUAGUCGGACCUCUCCUUAAUGGGAGCUAGCGGAUGAAGUGAUGCAACACUGGAGCCGCUGGGAACUAAUUUGUAUGCGAAAGUAUAUUGAUUAGUUUUGGAGUACUCGUGGUCG
In short: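 Library with all eight P1ex-region intron nucleotides randomised, intron inside the knt kanamycin-resistance gene on pET-22b(+), in E. coli BL21(DE3). Cells grew overnight at 37°C or 30°C on LB agar with or without 25 μg/mL kanamycin (plus 100 μg/mL carbenicillin, 50 μM IPTG, 0.2% rhamnose), in six replicate transformations. Pooled colonies were amplicon-sequenced on Illumina HiSeq 2500. DiMSum fitness is the error-weighted combination of wild-type-normalised replicate fold changes, kanamycin versus none.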

| Sequence | self-splicing fitness (ln) (30 °C) | self-splicing fitness (ln) (37 °C) |
| --- | --- | --- |
| ACAAAGCAAUAUUACGGAAA | -2.26 ± 0.18 | -1.7 ± 0.21 |
| ACAAAGCAAUAUUACGGAAG | -2.47 ± 0.091 | -1.61 ± 0.11 |
| ACAAAGCAAUAUUACGGAGU | -3.79 ± 0.15 | -2.9 ± 0.17 |
| ACAAAGCAAUAUUACGGCAU | -0.565 ± 0.046 | 0.328 ± 0.058 |
| ACAAAGCAAUAUUACGGCCC | -0.546 ± 0.13 | -0.479 ± 0.2 |
| ACAAAGCAAUAUUACGGCUA | -0.14 ± 0.054 | -0.0776 ± 0.062 |
| ACAAAGCAAUAUUACGGGGA | -2.95 ± 0.14 | -1.05 ± 0.088 |
| ACAAAGCAAUAUUACGGUUA | -1.58 ± 0.092 | -0.719 ± 0.078 |
| ACAAAGCAAUAUUACGGUUU | -1.71 ± 0.076 | -0.493 ± 0.083 |
| ACAAAGCAAUAUUACGUACC | -1.13 ± 0.1 | -0.353 ± 0.12 |
| ACAAAGCAAUAUUACGUAUA | -2.79 ± 0.2 | -2.09 ± 0.22 |
| ACAAAGCAAUAUUACGUUAU | -2.81 ± 0.089 | -1.5 ± 0.089 |
| ACAAAGCAAUAUUACGUUUG | -2.98 ± 0.1 | -1.65 ± 0.12 |
| ACACAGCAAUAUUACGAACA | -1.69 ± 0.082 | -1.18 ± 0.079 |
| ACACAGCAAUAUUACGACGC | -0.0854 ± 0.07 | 0.622 ± 0.093 |
| ACACAGCAAUAUUACGAGGC | -3.49 ± 0.17 | -3.41 ± 0.29 |
| ACACAGCAAUAUUACGAGUU | -3.49 ± 0.14 | -2.18 ± 0.14 |
| ACACAGCAAUAUUACGAUCA | -1.39 ± 0.084 | -0.858 ± 0.095 |
| ACACAGCAAUAUUACGAUGU | -3.46 ± 0.1 | -1.18 ± 0.08 |
| ACACAGCAAUAUUACGCCGC | -3.21 ± 0.34 | -1.68 ± 0.16 |
| ACACAGCAAUAUUACGCCUA | -0.959 ± 0.065 | -0.392 ± 0.067 |
| ACACAGCAAUAUUACGCGCU | -0.741 ± 0.059 | -0.491 ± 0.068 |
| ACACAGCAAUAUUACGCUCU | -0.902 ± 0.069 | -0.159 ± 0.075 |
| ACACAGCAAUAUUACGGCCG | -0.675 ± 0.095 | -0.395 ± 0.12 |
| ACACAGCAAUAUUACGGCUA | -0.536 ± 0.071 | -0.218 ± 0.074 |
| ACACAGCAAUAUUACGGUCC | -1.31 ± 0.073 | -0.868 ± 0.089 |

| Sequence | self-splicing fitness (ln) (30 °C) | self-splicing fitness (ln) (37 °C) |
| --- | --- | --- |
| ACACAGCAAUAUUACGGUUC | -3.81 ± 0.14 | -2.03 ± 0.12 |
| ACACAGCAAUAUUACGUAUC | -3.71 ± 0.15 | -2.8 ± 0.15 |
| ACACAGCAAUAUUACGUAUG | -2.32 ± 0.076 | -1.9 ± 0.098 |
| ACACAGCAAUAUUACGUCAC | -3.22 ± 0.16 | -2.86 ± 0.27 |
| ACACAGCAAUAUUACGUCGU | -2.67 ± 0.11 | -1.58 ± 0.12 |
| ACACAGCAAUAUUACGUCUC | -3.26 ± 0.099 | -1.25 ± 0.08 |
| ACACAGCAAUAUUACGUCUG | -1.65 ± 0.055 | -0.547 ± 0.061 |
| ACACAGCAAUAUUACGUGCA | -0.241 ± 0.051 | -0.395 ± 0.063 |
| ACACAGCAAUAUUACGUUAC | -3.18 ± 0.15 | -2.14 ± 0.17 |
| ACAGAGCAAUAUUACGAAAG | -3.24 ± 0.19 | -1.46 ± 0.16 |
| ACAGAGCAAUAUUACGAACG | -2.76 ± 0.19 | -1.45 ± 0.28 |
| ACAGAGCAAUAUUACGACGC | -1.19 ± 0.13 | -0.298 ± 0.14 |
| ACAGAGCAAUAUUACGAGUA | – | -2.34 ± 0.27 |
| ACAGAGCAAUAUUACGAUAU | -3.55 ± 0.29 | -2.62 ± 0.32 |
| ACAGAGCAAUAUUACGAUUG | -2.95 ± 0.26 | -3.3 ± 0.3 |
| ACAGAGCAAUAUUACGAUUU | -3.03 ± 0.14 | -1.71 ± 0.13 |
| ACAGAGCAAUAUUACGCAGU | – | -2.62 ± 0.4 |
| ACAGAGCAAUAUUACGCCGA | -2.95 ± 0.48 | -2.76 ± 0.38 |
| ACAGAGCAAUAUUACGCCUG | – | -1.94 ± 0.46 |
| ACAGAGCAAUAUUACGCGUG | -1.81 ± 0.081 | -1.87 ± 0.1 |
| ACAGAGCAAUAUUACGCUCC | – | -1.45 ± 0.42 |
| ACAGAGCAAUAUUACGGAGG | -3.8 ± 0.33 | -1.39 ± 0.24 |
| ACAGAGCAAUAUUACGGCUU | -3.27 ± 0.23 | -1.99 ± 0.18 |
| ACAGAGCAAUAUUACGGUGU | -3.8 ± 0.15 | -3.02 ± 0.22 |
| ACAGAGCAAUAUUACGUAGG | -3.59 ± 0.14 | -1.61 ± 0.13 |
| ACAGAGCAAUAUUACGUCGC | -2.98 ± 0.31 | -3.02 ± 0.31 |

| Sequence | self-splicing fitness (ln) (30 °C) | self-splicing fitness (ln) (37 °C) |
| --- | --- | --- |
| ACAGAGCAAUAUUACGUUCC | -2.89 ± 0.32 | -1.81 ± 0.34 |
| ACAGAGCAAUAUUACGUUCU | -3.89 ± 0.26 | -3.29 ± 0.29 |
| ACAGAGCAAUAUUACGUUUA | -3.01 ± 0.15 | -3.24 ± 0.23 |
| ACAGAGCAAUAUUACGUUUG | -3.85 ± 0.25 | -3.07 ± 0.24 |
| ACAUAGCAAUAUUACGAAGU | -2.67 ± 0.21 | -2.85 ± 0.23 |
| ACAUAGCAAUAUUACGAAUC | -3.23 ± 0.2 | -2.78 ± 0.28 |
| ACAUAGCAAUAUUACGACAG | -1.46 ± 0.099 | -0.508 ± 0.11 |
| ACAUAGCAAUAUUACGACCC | -0.944 ± 0.36 | -0.798 ± 0.32 |
| ACAUAGCAAUAUUACGACGU | 0.079 ± 0.081 | 0.0804 ± 0.083 |
| ACAUAGCAAUAUUACGACUA | -0.666 ± 0.11 | -0.473 ± 0.1 |
| ACAUAGCAAUAUUACGAGGG | -3.52 ± 0.19 | -3.05 ± 0.29 |
| ACAUAGCAAUAUUACGAUAA | -2.16 ± 0.13 | -1.72 ± 0.17 |
| ACAUAGCAAUAUUACGAUGC | -3.16 ± 0.15 | -0.811 ± 0.12 |
| ACAUAGCAAUAUUACGCAGU | -3.57 ± 0.28 | -2.84 ± 0.36 |
| ACAUAGCAAUAUUACGCAUU | -3.32 ± 0.11 | -2.46 ± 0.13 |
| ACAUAGCAAUAUUACGCGAC | -3.68 ± 0.42 | -0.813 ± 0.18 |
| ACAUAGCAAUAUUACGGCAG | -1.29 ± 0.11 | -0.918 ± 0.16 |
| ACAUAGCAAUAUUACGGCGA | -0.475 ± 0.09 | -0.0687 ± 0.1 |
| ACAUAGCAAUAUUACGGGCA | -1.57 ± 0.11 | -1.76 ± 0.098 |
| ACAUAGCAAUAUUACGGUGC | -3.84 ± 0.25 | -2.54 ± 0.21 |
| ACAUAGCAAUAUUACGGUGG | -3.62 ± 0.14 | -2.14 ± 0.12 |
| ACAUAGCAAUAUUACGGUUU | -2.13 ± 0.057 | -0.763 ± 0.071 |
| ACAUAGCAAUAUUACGUACA | -2.25 ± 0.16 | -1.25 ± 0.12 |
| ACAUAGCAAUAUUACGUAUA | -3.09 ± 0.22 | -1.78 ± 0.21 |
